19 molecules from article PMC3728706 can be followed below.

B1: Shank3 PDZ domain (domain or fragment)
chain: VAILQKRDHEGFGFVLRGAKAETPIEEFTPTPAFPALQYLESVDVEGVAWRAGLRTGDFLIEVNGVNVVKVGHKQVVGLIRQGGNRLVMKVVSVT
B2: Synip PDZ domain (domain or fragment)
chain: AFRVITVTKETGLGLKILGGINRNEGPLVYIHEVIPGGDCYKDGRLKPGDQLVSINKESMIGVSFEEAKSIITRAKLRSESPWEIAF
B3: Tip1 PDZ domain (domain or fragment)
chain: RVEIHKLRQGENLILGFSIGGGIDQDPSQNPFSEDKTDKGIYVTRVSEGGPAEIAGLQIGDKIMQVNGWDMTMVTHDQARKRLTKRSEEVVRLLVTRQ
B4: PDZ11 PDZ domain (domain or fragment)
chain: IVTLKKPPGAQLGFNIRGGKASQLGIFISKVIPDSDAHRAGLQEGDQVLAVNDVDFQDIEHSKAVEILKTAREISMRVRFFPY
B5: Tiam2 PDZ domain (domain or fragment)
chain: DVQLTKTGDMTDFGFAVTVQVDEHQHLNRIFISDVLPDSLAYGGGLRKGNEITSLNGEPVSDLDIQQMEALFSEKSVGLTLVARPVT

This experiment deals with fluorescently labeled peptide derived from the C-terminus of β-catenin. In words: fluorescence polarisation. For orientation: In fluorescence polarisation assays a small probe gives low polarisation when free and higher when bound to something large.
Regarding PSD95 PDZ domain (domain or fragment), the dissociation constant Kd turned out to be 31 µM.

In turn, “Magi-1 PDZ domain 6 (domain or fragment)” came in with a dissociation constant Kd of 1 µM. PTP-BL PDZ domain (domain or fragment) registered a Kd of 79 µM.

As to “LIN7 PDZ domain (from UniProt O88951 93-175) (domain or fragment)”, the Kd stood at 25 µM. As to PDZk7 PDZ domain (domain or fragment), the Kd stood at 103 µM. This Kd lies about 4.1-fold higher than the previous one. As to “Erbin PDZ domain (from UniProt Q80TH2 1311-1400) (domain or fragment)”, the Kd is 6 µM. This Kd lies about 17-fold lower than the previous one. Pard3 PDZ domain (domain or fragment) gave an equilibrium dissociation constant (Kd) of 100 µM.

Consider Magi-2 PDZ domain (domain or fragment), for which the equilibrium dissociation constant (Kd) was 0.6 µM. PDZk3 PDZ domain (domain or fragment) showed a dissociation constant (Kd) of 207 µM. As for SAP97 PDZ domain (domain or fragment), the Kd is 342 µM. With Grip1 PDZ domain (domain or fragment), the Kd worked out at 369 µM. Take Magi-3 PDZ domain (domain or fragment): the Kd was 1 µM. NHERF-1 PDZ domain (domain or fragment) had a Kd of 20 µM.

As to Scrib PDZ domain (domain or fragment), the Kd turned out to be 13 µM. As for B1, the Kd is 9 µM. For the molecule B2, the Kd was 276 µM. As to B3, the Kd was 0.3 µM. B4 yielded a Kd of 333 µM. In turn, B5 showed a Kd of 1 µM. This Kd is about 330-fold lower than that of the molecule before.

Broadly, the Kd is a measure of binding affinity in units of concentration. Low readings indicate a tighter complex, high ones a looser complex.
